{"source": "patent US20050287542", "key": {"[1]": {"molecular_target": "G27 (isolated GCN4 basic region) (UniProt P03069)", "experiment": "EMSA"}, "G56 (GCN4 bZIP element)": {"molecular_target": "G56 (GCN4 bZIP element) (UniProt P03069)", "experiment": "EMSA"}, "[2]": {"tested_on": "T1, PPBR2SR (Artificial Sequence)", "T1 sequence": "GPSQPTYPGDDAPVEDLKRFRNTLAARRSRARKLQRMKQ", "experiment": "EMSA", "details": "physiological ionic strength, on ice"}, "[3]": {"tested_on": "T2, PPBR4-deltaSR (Artificial Sequence)", "T2 sequence": "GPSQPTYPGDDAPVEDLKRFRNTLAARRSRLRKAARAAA", "experiment": "EMSA", "details": "hydrophobic core disrupted; scale: kcal/mol less stable than PPBR4SR-hsCRE24"}, "[4]": {"tested_on": "T3, PPBR4SR (PPBR4) (Artificial Sequence)", "T3 sequence": "T2 sequence with L31A", "experiment": "EMSA"}, "[5]": {"tested_on": "p007 (Artificial Sequence)", "experiment": "EMSA"}, "[6]": {"tested_on": "p011 (Artificial Sequence)", "experiment": "EMSA", "details": "4 C"}, "[7]": {"tested_on": "p012 (Artificial Sequence)", "experiment": "EMSA", "details": "4 C"}, "[8]": {"tested_on": "p016 (Artificial Sequence)", "experiment": "EMSA", "details": "4 C"}, "[9]": {"tested_on": "PPBR4 on phage (Artificial Sequence)", "experiment": "pulldown", "details": "phage panning, PBS, 0.1% NP-40, 2.5 ug/ml poly-dIdC, 4 C"}, "[10]": {"tested_on": "aPP (avian pancreatic polypeptide) (avian)", "experiment": "pulldown", "details": "phage panning, negative control; computed from the stated 10-fold"}, "[11]": {"tested_on": "p007 (Artificial Sequence)", "details": "scale: fold average specificity ratio for hsCRE over any site in CT DNA"}}, "note": "Substitutions are numbered along the chain they refer to. pKd: −log10 of the molar value."}
{"substance": "hsCRE24", "values": [{"measurement": "pKd", "setting": "[1]; 4 C", "result": 6.39}, {"measurement": "binding signal", "setting": "[1]; lacks polyproline helix and turn, scale: kcal/mol less stable than PPBR4SR-hsCRE24", "result": 3.1}, {"measurement": "binding signal (fold preference over hsCEBP24)", "setting": "G56 (GCN4 bZIP element)", "result": 180}, {"measurement": "pKd", "setting": "[2]", "result": 8.30}, {"measurement": "binding signal", "setting": "[3]", "result": 3.2}, {"measurement": "pKd", "setting": "[4]; PPBR4, 4 C", "result": 8.72}, {"measurement": "pKd", "setting": "[4]; physiological ionic strength, on ice", "result": 8.82}, {"measurement": "pKd", "setting": "[5]; 4 C, PBS-type buffer with 1 mM EDTA", "result": 10.64}, {"measurement": "pKd", "setting": "[5]; 25 C", "result": 8.80}, {"measurement": "pKd", "setting": "[6]", "result": 8.82}, {"measurement": "pKd", "setting": "[7]", "result": 8.60}, {"measurement": "pKd", "setting": "[8]", "result": 9.52}]}
{"substance": "hsCRE24 on beads", "values": [{"measurement": "binding signal (fold retention over aPP phage)", "setting": "[9]", "result": 10}, {"measurement": "binding signal (fold retention relative to PPBR4 phage)", "setting": "[10]", "result": 0.1}]}
{"substance": "hsCEBP24", "values": [{"measurement": "binding signal", "setting": "G56 (GCN4 bZIP element); ddG -2.9 kcal/mol, scale: fold specificity ratio for hsCRE24 over hsCEBP24", "result": 180}, {"measurement": "binding signal", "setting": "[4]; ddG -4.4 kcal/mol, scale: fold specificity ratio for hsCRE24 over hsCEBP24", "result": 2600}]}
{"substance": "calf thymus DNA", "values": [{"measurement": "binding signal", "setting": "[11]", "result": 4170}]}
